B1: Homeobox protein cut-like 1, residues 941 to 1008; numbered along this chain, P39880 (parent)
chain: QEVDTIELTRQVKEKLAKNGICQRIFGEKVLGLSQGSVSDMLSRPKPWSKLTQKGREPFIRMQLWLNG

Variants of: B1
Assay: abundance fitness (aPCA) (normalised: wild type 0, dead -1); higher = more abundant; growth selection in yeast, the domain comes from the species named
Details: Homo sapiens

Abundance fitness, by site and new letter:
L8: S -0.002, W -0.157, Y -0.089, I 0.131, Q -0.032, M 0.019, E 0.011, N 0.011, P -0.007, T 0.003, D 0.076, R -0.01, F -0.152, G 0.039, K 0.04, C -0.205, V 0.038, A 0.051
I21: D -0.559, A -0.489, L -0.08, C -0.419, Y 0.019, F -0.115, G -0.473, N -0.283, M -0.1, P -0.319, R -0.402, T -0.197, E -0.22, Q -0.184, W 0, K -0.381, H -0.425
E14: Q -0.14, H -0.498, K -0.111, W -0.221, L -0.152, F -0.443, C -0.086, P 0.005, G -0.156, N -0.063, S -0.143, Y -0.418, T -0.121, V -0.214, R -0.054
V3: N -0.335, C -0.486, M -0.045, D -0.174, P -0.111, K -0.136, R -0.051, T -0.112, H -0.199, I 0.19, E -0.037, A -0.133, Y -0.227, W -0.528, F -0.063, G -0.154, Q -0.032, S -0.067, L 0.008
I6: W -0.368, V -0.046, K 0.089, Y -0.129, H -0.005, N -0.09, M 0.06, G -0.049, T -0.029, F -0.081, L -0.161, C -0.091, A 0.076, R -0.053, S -0.259, D -0.268
K18: N -0.051, G -0.226, R -0.139, F -0.287, C -0.261, S -0.102, V -0.184, L -0.168, W -0.272, Q -0.134, Y -0.527, I -0.085, H -0.412, D -0.397, M -0.059, E 0, A -0.083
V12: Y -0.175, F -0.289, R -0.131, M -0.084, E -0.113, K -0.183, N -0.28, I -0.338, P -0.008, H -0.142, D -0.049, A -0.171, W -0.226, G -0.01, C -0.461, L -0.359, Q -0.143, T -0.177, S -0.091
D4: R -0.368, W -0.552, P -0.265, Q -0.328, N -0.097, T -0.25, A -0.376, I -0.503, E -0.093, H -0.346, L -0.572, F -0.35, M -0.153, C -0.243, Y -0.43, G -0.312, V -0.581, S -0.261
E7: I -0.565, A 0.14, S 0.172
K13: G -0.419, F -0.768, E -0.208, M -0.278, R -0.119, L -0.326, N -0.132, W -0.459, S -0.35, A -0.339, T -0.146, Q -0.1, P -0.159, D -0.262, H -0.254, V -0.392, Y -0.475, C -0.459
E2: L -0.376, G -0.081, D -0.283, M -0.09, P -0.206, N -0.227, S -0.135, C -0.375, Q -0.093, A -0.273, Y -0.329, K -0.074, R -0.157, V -0.16, W -0.738, H -0.317, I -0.085
Q11: S -0.152, T -0.142, W -0.448, N -0.234, A -0.13, L -0.125, G -0.165, C -0.323, I -0.308, V -0.274, D -0.298, H -0.114, R -0.084, P -0.092, K 0.132
K15: R -0.096, V -0.228, T -0.196, N -0.012, C -0.119, A -0.147, H -0.259, P -0.052, D -0.586, Y 0.145, G -0.366, M -0.148, F -0.175, W -0.238, S -0.221, I -0.085, Q -0.119, E -0.083, L -0.057
L16: E -0.032, F -0.257, A -0.188, S -0.033, T 0.023, C -0.073, W -0.194, D -0.189, R -0.033, N -0.217, Q -0.102, P 0.004, V -0.162, G -0.015, H 0.009, Y -0.278, I -0.198, M 0.107
C22: A -0.053, D -0.045
T5: G -0.329, V -0.383, A -0.253, K -0.121, C -0.233, Y -0.192, D -0.412, E -0.204, P -0.354, Q -0.086, R -0.157, F -0.235, S -0.177, M -0.02, L -0.135, H -0.145, W -0.176, I -0.177, N -0.223
Q1: V -0.201, Y -0.34
G20: C -0.317, R -0.048, Q 0.067, E -0.331, F -0.239, K 0.046, D -0.279, W -0.287, I -0.361, M -0.231, Y -0.104, T -0.087, P -0.141, S -0.112, L -0.277, A -0.135, V -0.441, H -0.24
T9: N -0.348, G -0.047, S -0.149, A 0.026, K -0.109, L -0.405, R -0.212, C -0.087, P -0.28, Y -0.577, H -0.142, I -0.113, D -0.168, W -0.197, E -0.191, M -0.384
N19: Q 0.042, I 0.075, P 0.043, G -0.087, K -0.019, Y -0.331, W -0.234, E 0.098, L 0.125, V 0.023, F 0.07, A -0.033, M 0.017, D 0.17, T 0.034
A17: E -0.066, V -0.087, D 0.014, G -0.205, I -0.022, W -0.269, C -0.154, R -0.011, N -0.123, M -0.171, H -0.108, T -0.163, Y -0.214, L -0.148, K 0.033, Q -0.115, F -0.116
R10: E -0.056, S -0.111, A -0.096, D -0.112, K 0.074, F -0.307, G -0.089, Q -0.135, H -0.226, L -0.246, P -0.157, C -0.22, N 0.036, Y -0.306, I -0.301, W -0.509
